From patent US20030211587A1 (University of Texas, published 2003)

Biological target: the molecule itself
Assay: native gel electrophoresis of purified His-tagged keptin (self-association)
Protocol: Analysis of His-tagged keptin recombinant protein. Crude proteins were extracted from E. Coli transformed with a bacterial expression vector encoding a secreted form of keptin tagged with 10× histidine residues at its N-terminus. The extracts were affinity purified with nickel resins and subjected to SDS-PAGE analysis under denatured conditions. […] The purified protein was also analyzed for its biochemical properties by native gel electrophoresis. Both keptin dimers and monomers were detected in the native gel. Leptin (MW: 14 kDa) was used as a reference for a monomer protein with similar molecular weight to His-Keptin (11.4 kDa).

B1: His-tagged keptin recombinant protein (human mature keptin with N-terminal 10x histidine, from pET-hKeptin in E. coli) (other, UniProt P60985 23-99, looked up)
chain: ATLGGPEEESTIENYASRPEAFNTPFLNIDKLRSAFKADEFLNWHALFESIKRKLPFLNWDAFPKLKGLRSATPDAQ
notes: mature; also called His-keptin; His-Keptin; not shown: N-terminal 10x histidine tag encoded by vector pET-16b
B1: binds.
